B1: BBSome complex member BBS5 (Homo sapiens), Q8N3I7 (parent)
chain: MSVLDALWEDRDVRFDLSAQQMKTRPGEVLIDCLDSIEDTKGNNGDRGRLLVTNLRILWHSLALSRVNVSVGYNCILNITTRTANSKLRGQTEALYILTKCNSTRFEFIFTNLVPGSPRLFTSVMAVHRAYETSKMYRDFKLRSALIQNKQLRLLPQEHVYDKINGVWNLSSDQGNLGTFFITNVRIVWHANMNDSFNVSIPYLQIRSIKIRDSKFGLALVIESSQQSGGYVLGFKIDPVEKLQESVKEINSLHKVYSASPIFGVDYEMEEKPQPLEALTVEQIQDDVEIDSDGHTDAFVAYFADGNKQQDREPVFSEELGLAIEKLKDGFTLQGLWEVMS
partner: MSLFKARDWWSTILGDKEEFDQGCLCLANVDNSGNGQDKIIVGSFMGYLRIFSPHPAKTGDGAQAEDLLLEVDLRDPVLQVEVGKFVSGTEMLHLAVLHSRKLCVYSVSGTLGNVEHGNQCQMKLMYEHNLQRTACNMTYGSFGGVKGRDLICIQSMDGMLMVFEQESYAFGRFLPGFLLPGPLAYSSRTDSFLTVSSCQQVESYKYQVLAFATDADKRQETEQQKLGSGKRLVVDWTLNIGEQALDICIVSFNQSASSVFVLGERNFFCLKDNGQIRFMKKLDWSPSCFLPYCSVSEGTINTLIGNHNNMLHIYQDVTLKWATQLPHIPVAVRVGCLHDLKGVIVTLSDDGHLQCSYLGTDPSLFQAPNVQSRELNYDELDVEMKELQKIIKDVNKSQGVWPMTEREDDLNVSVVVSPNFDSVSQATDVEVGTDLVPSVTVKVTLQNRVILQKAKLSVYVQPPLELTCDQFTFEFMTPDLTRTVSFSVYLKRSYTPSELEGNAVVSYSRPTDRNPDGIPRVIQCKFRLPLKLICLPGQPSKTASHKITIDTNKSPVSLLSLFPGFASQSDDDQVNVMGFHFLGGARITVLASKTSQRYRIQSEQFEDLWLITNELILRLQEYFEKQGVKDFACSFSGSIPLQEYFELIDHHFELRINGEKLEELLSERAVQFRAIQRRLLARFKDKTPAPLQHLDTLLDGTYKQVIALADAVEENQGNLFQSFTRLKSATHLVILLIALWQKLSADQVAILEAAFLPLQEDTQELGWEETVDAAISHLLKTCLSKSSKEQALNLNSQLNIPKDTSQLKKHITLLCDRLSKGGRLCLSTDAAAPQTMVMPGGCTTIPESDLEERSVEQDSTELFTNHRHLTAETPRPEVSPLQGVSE

Variants of: B1
Conditions: with pthb1_human BBS9, Q3SYG4

Variant | effect of a mutation on the interaction
L30A | with no effect
L30K | with no effect
L30E | with no effect
L30P | disrupting interaction strength
N68E | with no effect
N68A | disrupting interaction strength
N68K | with no effect
N78A | with no effect
N78E | with no effect
N78K | with no effect
I31K | with no effect
I31E | with no effect
I31A | disrupting interaction strength
N54E | disrupting interaction strength
N54A | with no effect
N54K | with no effect
R66K | with no effect
R66A | with no effect
R66E | with no effect
L58K | disrupting interaction strength
L58A | with no effect
L58E | with no effect
L64E | with no effect
L64K | with no effect
L64A | with no effect

Variant | effect of a mutation on the interaction
L55K | with no effect
L55E | disrupting interaction strength
L55F | disrupting interaction strength
L55A | disrupting interaction strength
N43A | with no effect
N43K | with no effect
N43E | with no effect
G48E | with no effect
G48K | with no effect
G48A | with no effect
G48S | disrupting interaction strength
N74K | with no effect
N74E | with no effect
N74A | with no effect
G72A | with no effect
G72K | with no effect
G72S | disrupting interaction strength
G72E | with no effect
V71K | with no effect
V71E | with no effect
V71A | with no effect
N85A | with no effect
L34A | with no effect
L34E | with no effect
L34K | with no effect

Variant | effect of a mutation on the interaction
T83E | with no effect
T83K | with no effect
T83A | disrupting interaction strength
T53K | with no effect
T53E | with no effect
T53A | with no effect
L51K | with no effect
L51A | with no effect
L51E | with no effect
D35E | with no effect
D35K | with no effect
D35A | with no effect
E38A | with no effect
E38K | with no effect
C33E | with no effect
C33A | with no effect
C33K | with no effect
D39K | with no effect
D39E | with no effect
D39A | with no effect
A63K | with no effect
A63E | with no effect
I57A | with no effect
I57K | with no effect
I57E | with no effect

Variant | effect of a mutation on the interaction
W59E | with no effect
W59K | with no effect
W59A | with no effect
K41E | with no effect
K41A | with no effect
T81A | with no effect
T81K | with no effect
T81E | with no effect
S36E | with no effect
S36A | with no effect
S36K | with no effect
R49E | with no effect
R49A | with no effect
R49K | with no effect
S61K | with no effect
S61A | with no effect
S61F | disrupting interaction strength
S61E | with no effect
R56A | disrupting interaction strength
R56E | disrupting interaction strength
R56G | disrupting interaction strength
R56K | disrupting interaction strength
S65K | with no effect
S65E | with no effect
S65A | with no effect

Variant | effect of a mutation on the interaction
R47E | with no effect
R47A | with no effect
R47K | with no effect
L50E | with no effect
L50K | with no effect
L50A | disrupting interaction strength
D32G | disrupting interaction strength
D32E | with no effect
D32A | with no effect
D32K | with no effect
L77K | with no effect
L77A | with no effect
L77E | with no effect
N44E | with no effect
N44A | with no effect
N44K | with no effect
T40K | with no effect
T40A | with no effect
T40E | with no effect
V52E | with no effect
V52K | disrupting interaction strength
V52A | with no effect
S70K | with no effect
S70E | with no effect
S70A | with no effect

Variant | effect of a mutation on the interaction
I37E | with no effect
I37K | with no effect
I37A | with no effect
D46A | with no effect
D46K | with no effect
D46E | with no effect
D46N | disrupting interaction strength
H60A | with no effect
H60K | with no effect
H60E | with no effect
L62K | with no effect
L62A | with no effect
L62E | with no effect
Y73K | with no effect
Y73E | with no effect
Y73A | with no effect
V29E | with no effect
V29K | disrupting interaction strength
T80K | with no effect
T80A | disrupting interaction strength
T80I | disrupting interaction strength
T80E | with no effect
G45K | with no effect
G45E | with no effect
G45A | with no effect

Variant | effect of a mutation on the interaction
V67A | with no effect
V67K | with no effect
V67E | with no effect
I76K | with no effect
I76T | disrupting interaction strength
I76E | disrupting interaction strength
I76A | with no effect
C75E | with no effect
C75K | with no effect
C75A | with no effect
R82K | with no effect
R82A | with no effect
R82E | with no effect
V69E | with no effect
V69K | with no effect
V69A | with no effect
G42A | with no effect
G42E | disrupting interaction strength
G42K | with no effect
I79A | with no effect
I79E | with no effect
I79K | with no effect
A84K | with no effect
A84E | with no effect

Source: IntAct's records for PubMed 29039417
